Where two headings read alike, the source gives them in different places. Each block holds one binder with its values, some of them ahead of it.
How the values were obtained:
[1] = target: T1, Hs_CD123_6His-Avi (CD123 ECD-His-Avi fusion protein) (human, UniProt P26951 19-303); assay: competition ELISA: plate coated with CD123 ECD-His-Avi, biotinylated 10C4 as competitor, increasing unlabeled antibody, HRP-streptavidin; unit not given, x axis is log(concentration)
T1 construct: The signal peptide is marked only by bold type, so its limits cannot be read here and were not guessed; also called His-Avi tagged peptide encompassing the ECD of human CD123
T1 sequence: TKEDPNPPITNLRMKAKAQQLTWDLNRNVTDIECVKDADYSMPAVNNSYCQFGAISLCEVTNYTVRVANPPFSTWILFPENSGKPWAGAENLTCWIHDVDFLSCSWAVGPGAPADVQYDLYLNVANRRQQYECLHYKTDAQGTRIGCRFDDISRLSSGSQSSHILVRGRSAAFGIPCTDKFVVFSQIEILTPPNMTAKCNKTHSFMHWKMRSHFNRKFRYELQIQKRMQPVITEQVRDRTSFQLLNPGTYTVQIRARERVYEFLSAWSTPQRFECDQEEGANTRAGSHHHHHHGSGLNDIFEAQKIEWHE
Description: (§1) FIGS. 15A-15B. Enzyme-linked immunosorbent assay (ELISA) with the original mouse 10C4 antibody and peptide encompassing the entire extracellular domain (ECD) of CD123 was used to test competitive binding of 10C4 compared to recombinant (FIG. 15A) human IgG1 versions and (FIG. 15B) human IgG4 versions of chimeric 10C4 and humanized 10C4 monoclonal antibodies. Plates were coated with CD123 ECD-His-Avi fusion protein and bound to biotinylated 10C4 antibody in the presence or absence of increasing amounts of competing unlabeled antibodies, as detected by HRP-Streptavidin.

[2] = target: T1, Hs_CD123_6His-Avi (CD123 ECD-His-Avi …); assay: competition ELISA against biotinylated 10C4 on coated CD123 ECD-His-Avi; percent relative to the 10C4 row of the drawn table
Description: as §1

[3] = target: T1, Hs_CD123_6His-Avi (CD123 ECD-His-Avi …); assay: SPR (Biacore T-100), univalent affinity; antibody captured on the CM4 chip, human CD123 ECD as analyte
Procedure: FIGS. 13A-13B. Surface plasmon resonance (Biacore T-100) analyses were performed to rigorously/precisely determine univalent binding affinities of recombinant chimeric and humanized versions of the anti-human CD123 monoclonal antibody 10C4, using (FIG. 13A) human IgG1 and (FIG. 13B) human IgG4 frameworks. For these experiments, a peptide encoding the complete extracellular portion of human CD123 was used, and the antibodies were captured on the biosensor chip (CM4) via a Fc gamma-specific goat anti-human IgG and amine coupling.

[4] = target: T1, Hs_CD123_6His-Avi (CD123 ECD-His-Avi …); assay: competition ELISA: plate coated with CD123 ECD-His-Avi, biotinylated 10C4 as competitor, increasing unlabeled antibody, HRP-streptavidin; unit not given, x axis is log(concentration); remark: listed apart in the source
Description: as §1

[5] = target: T2, human interleukin-3 (IL-3) receptor alpha-chain (CD123), on cells (human, UniProt P26951 19-378); assay: flow cytometry (PE-A), recombinant human IgG1 mAb + labeled secondary antibody, parental MOLM-13 cells against MOLM-13 CD123KO
T2 construct: whole, on cells; also called human CD123

[6] = target: T2, human interleukin-3 (IL-3) receptor …; assay: flow cytometry (PE-A), recombinant human IgG4 mAb + labeled secondary antibody, parental MOLM-13 cells against MOLM-13 CD123KO
Description: FIGS. 20A-20B. MOLM-13 cells with CRISPR/Cas9-mediated knockout of the CD123 locus (MOLM-13^CD123KO), parental MOLM-13 cells (endogenously expressing CD123) (FIG. 20A), ML-1 cells with CRISPR/Cas9-mediated knockout of the CD123 locus (ML-1^CD123KO), and ML-1^CD123KO cells in which human CD123 was re-expressed via lentivirus-mediated gene expression (FIG. 20B) were left untreated or treated with recombinant human anti-human CD123 mAbs (clones 1B5, 1D9, 1E3, 1F2, and 1G5; all human IgG4 frameworks) and a labeled secondary antibody before flow cytometric analysis.

[7] = target: T2, human interleukin-3 (IL-3) receptor …; assay: flow cytometry (APC-A), 30 min at 4 °C; bound fusion protein detected with APC-anti-hFc (tubes 1-5) or through Y-DOTA-biotin and APC-SA (tubes 6-8); RS4;11 cells expressing human CD123
Procedure: FIG. 24. Flow cytometry-based binding assay of monomeric anti-CD123 BsAb derived from 10C4 binding sequences. 0.4×10⁶ CD123-negative parental RS4;11 cells (RSA) or RSA cells engineered to express human CD123 (RS4-CD123) were incubated with or without CD123 bispecific fusion protein from purification (FP) or crude supernatant (load), with or without Y-DOTA-biotin. After incubating for 30 min at 4° C. cells were washed twice and assayed by flow cytometry with fluorophore-labeled anti-human Fc receptor secondary Ab (tubes 1-5) to detect bound bispecific fusion protein, or fluorophore labeled […] secondary Ab (tubes 6-8) to detect functional capacity of bispecific fusion protein to bind both CD123+ target cells and the radioligand, Y-DOTA-biotin.

[8] = target: T2, human interleukin-3 (IL-3) receptor …; assay: flow cytometry (APC-A), mAb at 2 µg/mL + labeled secondary antibody; RS4;11 transduced with human CD123, TF-1, KG-1, MOLM-13 cells
Procedure: FIG. 1. Parental human RS4;11 cells (endogenously lacking CD123), RS4;11 cells transduced with human CD123, CD123-expressing human AML cells lines (TF-1, KG-1, MOLM-13), and MOLM-13 cells with CRISPR/Cas9-mediated knockout of the CD123 locus (CD123^KO) were left untreated or treated with murine anti-human CD123 mAbs (10C4, 5G6, 11F11, 1H8; used at 2 µg/mL) or a commercial anti-CD123 mAbs (7G3, used at 2 µg/mL) and a labeled secondary antibody before flow cytometric analysis.

B2: Chi-10C4, recombinant chimeric 10C4, human IgG1 framework (antibody)
heavy: not shown
light: DIVMSQSPSSLAVSAGEKVTMSCKSSQSLLSSGTRKNYLAWYQQKPGQSPKLLIYWASTRESGVPDRFTGSGSGTDFTLTISSVQAEDLAVYYCKQSYILFTFGSGTKLEIKRTVAAPSVFIFPPSDEQLKSGTASVVCLLNNFYPREAKVQWKVDNALQSGNSQESVTEQDSKDSTYSLSSTLTLSKADYEKHKVYACEVTHQGLSSPVTKSFNRGEC
Immunoreactivity [2]: 100%
Calculated concentration at 1/2 OD [4]: 1.12
Kd [3]: 0.572 nM
koff [3]: 5.24e-05 s⁻¹
kon [3]: 91600 M⁻¹ s⁻¹

B6: 123-11F11 (murine anti-CD123 antibody, IgG1 isotype, Kappa Light Chain) (antibody, V domains shown)
VH: EVTLVESGGGLEQPGGSLSLSCAASGFTFTDYYMSWVRQPPGKALEWLALIRNKANGYTTEYSASVKGRFTISRDNSQSILYLQMNALRAEDSATYYCARQVRNYYGYEEDALDYWGQGTSVTVSS
VL: DIVLTQSPASLAVSLGQRATISCRASESLDFYGNSFMHWYQQKSGQPPKLLISRASNLESGIPPRFSGSGSRTDFTLTIDPVEADDVATYYCQQSYEDPYTFGGGTKLEIK
notes: murine IgG1, kappa
binding result [8]: binds

B7: 123-10C4 (murine anti-CD123 antibody, IgG2b isotype, Kappa Light Chain) (antibody, V domains shown)
VH: QVQLKESGPGLVAPSQNLSITCTVSGFSLTTYDINWIRQPPGKGLEWLGVIWTGGGTNYNSAFMSRLSISKDNSKSQVFLKMNSLQTDDTAMYYCVRGDTYHYALDFWGQGTSVTVSS
VL: DIVMSQSPSSLAVSAGEKVTMSCKSSQSLLSSGTRKNYLAWYQQKPGQSPKLLIYWASTRESGVPDRFTGSGSGTDFTLTISSVQAEDLAVYYCKQSYILFTFGSGTKLEIK
notes: also called parent murine 10C4; murine anti-human CD123 monoclonal antibody 10C4
Calculated concentration at 1/2 OD [1]: 1.04
Calculated concentration at 1/2 OD [4]: 1.12
Kd [3]: 0.401 nM
koff [3]: 0.000102 s⁻¹
kon [3]: 254000 M⁻¹ s⁻¹

Now from value to binder:

Calculated concentration at 1/2 OD [1]: 1.21
Immunoreactivity [2]: 116%
Kd [3]: 1.39 nM
koff [3]: 0.00011 s⁻¹
kon [3]: 79100 M⁻¹ s⁻¹
B1: Chi-10C4, recombinant chimeric 10C4, human IgG4 framework (antibody)
heavy: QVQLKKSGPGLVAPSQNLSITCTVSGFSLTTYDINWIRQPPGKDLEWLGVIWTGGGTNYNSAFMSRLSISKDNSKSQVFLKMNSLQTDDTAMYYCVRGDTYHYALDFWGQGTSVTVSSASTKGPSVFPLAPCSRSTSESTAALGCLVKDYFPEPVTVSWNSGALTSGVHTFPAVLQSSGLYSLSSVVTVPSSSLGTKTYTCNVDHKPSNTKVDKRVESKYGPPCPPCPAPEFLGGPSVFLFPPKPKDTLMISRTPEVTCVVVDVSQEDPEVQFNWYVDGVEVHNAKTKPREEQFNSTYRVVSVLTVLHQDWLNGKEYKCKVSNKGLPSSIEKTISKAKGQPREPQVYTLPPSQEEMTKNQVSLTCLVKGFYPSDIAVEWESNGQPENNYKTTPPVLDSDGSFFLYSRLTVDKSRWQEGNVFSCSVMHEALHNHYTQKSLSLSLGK
light: B2 light
notes: Signal peptide left out as for the IgG1 form

binding result [5]: binds
B3: 123-ATX1F2, fully human recombinant antibody, human IgG1 framework (antibody)
heavy: not shown
light: DIQMTQSPSSLSASVGDRVTITCRASQGIRNDLGWYQQRPGKAPKRLIYAASSLQSGVPSRFSGSGSGTEFTLAISSLQPEDFATYSCLQHNSYPWTFGQGTKVEIKRTVAAPSVFIFPPSDEQLKSGTASVVCLLNNFYPREAKVQWKVDNALQSGNSQESVTEQDSKDSTYSLSSTLTLSKADYEKHKVYACEVTHQGLSSPVTKSFNRGEC
notes: also called 1F2 (human IgG1)

binding result [6]: binds
B4: 123-ATX1F2, fully human recombinant antibody, human IgG4 framework (antibody)
heavy: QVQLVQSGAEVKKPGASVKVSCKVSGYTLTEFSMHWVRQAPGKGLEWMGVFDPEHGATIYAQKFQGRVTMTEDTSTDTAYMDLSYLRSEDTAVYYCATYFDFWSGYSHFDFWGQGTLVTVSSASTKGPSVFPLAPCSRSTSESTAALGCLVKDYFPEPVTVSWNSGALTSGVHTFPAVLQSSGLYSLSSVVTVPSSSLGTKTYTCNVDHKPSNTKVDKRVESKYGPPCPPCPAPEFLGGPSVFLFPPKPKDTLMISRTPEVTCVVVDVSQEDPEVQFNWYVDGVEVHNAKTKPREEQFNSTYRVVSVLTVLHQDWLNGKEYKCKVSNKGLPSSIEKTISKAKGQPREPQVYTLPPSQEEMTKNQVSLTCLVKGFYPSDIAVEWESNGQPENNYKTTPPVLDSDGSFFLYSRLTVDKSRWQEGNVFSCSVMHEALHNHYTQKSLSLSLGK
light: B3 light
notes: also called 1F2 (human IgG4)

binding result [7]: binds
B5: 10C4-Fc-C825 monomeric construct (monomeric anti-CD123 x anti-Y-DOTA bispecific antibody) (bispecific antibody, human IgG1)
chain: DIVMSQSPSSLAVSAGEKVTMSCKSSQSLLSSGTRKNYLAWYQQKPGQSPKLLIYWASTRESGVPDRFTGSGSGTDFTLTISSVQAEDLAVYYCKQSYILFTFGSGTKLEIKGGGSGGGGSGGGGSGGGGSSQVQLKESGPGLVAPSQNLSITCTVSGFSLTTYDINWIRQPPGKGLEWLGVIWTGGGTNYNSAFMSRLSISKDNSKSQVFLKMNSLQTDDTAMYYCVRGDTYHYALDFWGQGTSVTVSSLEPKSSDKTHTSPPSPAPELLGGPSVFLFPPKPKDTLMISRTPEVTCVVVDVSHEDPEVKFNWYVDGVEVHNAKTKPREEQYNSTYRVVSVLTVLHQDWLNGKEYKCKVSNKALPAPIEKTISKAKGQPREPQVYTLPPSRDELTKNQVSLTCRVKGFYPSDIAVEWESNGQPENNYKTTPPVLDSDGSFHLESKLTVDKSRWQQGNVFSCSVMHEGLHNHYTQKSLSLSPGKVDGASSHVNVSSPSVQDIHVKLQESGPGLVQPSQSLSLTCTVSGFSLTDYGVHWVRQSPGKGLEWLGVIWSGGGTAYNTALISRLNIYRDNSKNQVFLEMNSLQAEDTAMYYCARRGSYPYNYFDAWGCGTTVTVSSGGGGSGGGGSGGGGSQAVVIQESALTTPPGETVTLTCGSSTGAVTASNYANWVQEKPDHCFTGLIGGHNNRPPGVPARFSGSLIGDKAALTIAGTQTEDEAIYFCALWYSDHWVIGGGTRLTVLG
notes: Single chain: 10C4 VL, linker 1, 10C4 VH, hinge and human IgG1 Fc (monomerising substitutions), linker 2, C825 VH, linker 3, C825 VL; also called monomeric 10C4 BsAb; monomeric anti-CD123 BsAb

— patent US20230295316A1 (FRED HUTCHINSON CANCER CENTER, published 2023)
